# Where “and” joins values, the source holds several entries; their conditions need not be identical. Equal values may be shown once.
# B1: peptide "F", binding motif for FGFR3, VSPPLTLGQLLS (peptide)
# peptide: VSPPLTLGQLLS
# B2: peptide "I", binding motif for IL-4Rα, KLAKLAKKLAKLAK (peptide)
# peptide: KLAKLAKKLAKLAK
# Key:
# [1] = target: T1, fibroblast growth factor receptor 3 (FGFR3); assay: binding affinity, method not stated
# T1 chain: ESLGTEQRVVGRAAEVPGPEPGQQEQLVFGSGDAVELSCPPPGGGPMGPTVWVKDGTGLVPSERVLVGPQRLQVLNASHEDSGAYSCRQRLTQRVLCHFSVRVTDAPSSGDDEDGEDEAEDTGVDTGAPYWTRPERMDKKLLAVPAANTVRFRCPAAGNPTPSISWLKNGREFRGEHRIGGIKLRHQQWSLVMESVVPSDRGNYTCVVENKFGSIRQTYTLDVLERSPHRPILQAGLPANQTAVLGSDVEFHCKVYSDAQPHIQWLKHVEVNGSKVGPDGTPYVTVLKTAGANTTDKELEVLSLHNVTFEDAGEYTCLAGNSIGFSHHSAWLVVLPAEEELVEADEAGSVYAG
# [2] = target: interleukin-4 receptor alpha (IL-4Rα); assay: binding affinity, method not stated
# interleukin-4 receptor alpha (IL-4Rα), sequence (chain, as listed by the source): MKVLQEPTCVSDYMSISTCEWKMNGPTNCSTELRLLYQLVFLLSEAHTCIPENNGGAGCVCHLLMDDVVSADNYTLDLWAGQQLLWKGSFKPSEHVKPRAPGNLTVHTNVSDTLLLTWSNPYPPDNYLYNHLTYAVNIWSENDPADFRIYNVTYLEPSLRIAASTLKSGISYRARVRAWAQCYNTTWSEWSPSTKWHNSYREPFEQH
Binder,Kd [1],Kd [2]
B1,~1000 nM and 1000 nM,–
B2,–,< 60000 nM and 55900 nM

# Reference: patent US20250387497A1 (PURDUE RESEARCH FOUNDATION, published 2025)
